The results in this text go back to paper PMC4522956, “Unsaturated fatty acids as high-affinity ligands of the C-terminal Per-ARNT-Sim domain from the Hypoxia-inducible factor 3α” (Scientific Reports, 2015).

For this experiment, the target named is T1, HIF-1β PASb labeled with FITC (human (cDNA library from the breast …, UniProt P27540 349-467, FITC (fluorescein isothiocyanate) label, sites not stated)).
T1 construct: HIF-1β (ARNT), PASb domain, Pro349-Ser467 of UniProt P27540; Same construct as m2, labeled with a 20-fold molar excess of FITC in borate buffer pH 8.5; also called PASb-1β labeled with FITC; PASb-1β; source: E. coli Rosetta-2, purified (TALON, MonoQ, Superdex 75), then labeled with FITC; not shown: 6xHis, N-terminal, cleaved
T1 sequence (P27540 349-467): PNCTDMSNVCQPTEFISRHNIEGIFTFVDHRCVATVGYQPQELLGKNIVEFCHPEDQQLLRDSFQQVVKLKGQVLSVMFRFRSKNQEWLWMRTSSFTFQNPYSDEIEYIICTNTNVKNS
The experiment can be described thus: fluorescence polarisation; unlabeled PASb-1α or PASb-3α serially diluted 1:2 from about 1 mM, mixed with FITC-labeled PASb-1β at 20 nM final; 30 mM Hepes pH 7.5, 150 mM NaCl, 0.5 mM TCEP; room temperature; triplicate. The note with it: both partners purified. On the technique in general: In fluorescence polarisation assays a small probe gives low polarisation when free and higher when bound to something large.

B1: HIF-1α PASb (domain or fragment)
chain: not shown
notes: Hypoxia-inducible factor 1α, PASb domain, Asp238-His348 of UniProt Q16665; Cloned NdeI/XhoI into pET28a; residues of the vector probably remain at the N-terminus after thrombin cleavage (surmise); also called PASb-1α; source: E. coli Rosetta-2, purified (TALON, MonoQ, Superdex 75); not shown: 6xHis, N-terminal, cleaved
For the molecule B1, the binding result is on record as “binds”.
